Test results from publication PMC3758141, “Structural analysis of DNA–protein complexes regulating the restriction–modification system Esp1396I” (Acta Crystallographica Section F: Structural Biology and …, 2013).

T1: C.Esp1396I controller protein (plasmid pEsp1396I (type II RM system …, UniProt Q8GGH0 1-79))
T1 sequence: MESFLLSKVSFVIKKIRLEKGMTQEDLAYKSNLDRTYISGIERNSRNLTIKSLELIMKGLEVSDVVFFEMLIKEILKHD


Tests used:
[1] = biological target: T1, C.Esp1396I controller protein; assay: X-ray crystallography; dimer bound at OL via HTH, OR half unbound; 10 mM spermidine, protein:DNA 2:1; Crystallization by vapour diffusion: 19OR 0.1 M PCB buffer pH 5.0, 25% PEG 3350, 10 mM spermidine (microseeded); 25OL 0.1 M PCB pH 4.0, 20% PEG 1500, 10 mM spermidine; temperature not stated; conditions: protein: recombinant; tags: N-terminal His6 removed with thrombin; chain copies: 2; (called 25 bp, but printed strand has 24 nt)
[2] = biological target: the molecule itself; assay: crystal structure; co-crystal of C.Esp1396I with the 19 bp OR DNA duplex (19OR), protein:DNA 1:1, 0.1 M PCB buffer pH 5.0, 25% PEG 3350, 10 mM spermidine, microseeding; 3.0 Å, space group C2

| Binder | binding result [1] | binding result [2] |
| --- | --- | --- |
| 25OL (dsDNA) DNA 1: ATGTGACTTATAGTCGTGTGATTA DNA 2: TAATCACACGACTATAAGTCACAT | binds |  |
| controller protein C.Esp1396I (natural protein, controller protein (C-protein) of the plasmid-borne type II restriction-modification system Esp1396I; 'native C.Esp1396I'; Homodimer; The His tag was removed with thrombin before crystallisation; In both crystals the dimer stands together with a DNA duplex (19 bp OR or 25 bp OL plus half of OR); also called C-protein; not shown: His6, N-terminal, cleaved) MESFLLSKVSFVIKKIRLEKGMTQEDLAYKSNLDRTYISGIERNSRNLTIKSLELIMKGLEVSDVVFFEMLIKEILKHD |  | binds |
